Assay results taken from US7052908B2, “Androgen receptor coactivators” (University of Rochester, priority 1998, dated 2006).

Key:
mARt877s = experiment: AR transactivation, transient transfection CAT reporter assay, mutant AR; assay type: cell-based, human
wtAR = target: T1, wtAR (Homo sapiens, UniProt P10275); experiment: AR transactivation, transient transfection with MMTV-CAT reporter in DU145 cells; conditions: for AR transcriptional activity induction with cotransfected coactivator: wild type AR, 1 nM DHT, DU145, from 5-fold without coactivator
T1 sequence (P10275 1-920): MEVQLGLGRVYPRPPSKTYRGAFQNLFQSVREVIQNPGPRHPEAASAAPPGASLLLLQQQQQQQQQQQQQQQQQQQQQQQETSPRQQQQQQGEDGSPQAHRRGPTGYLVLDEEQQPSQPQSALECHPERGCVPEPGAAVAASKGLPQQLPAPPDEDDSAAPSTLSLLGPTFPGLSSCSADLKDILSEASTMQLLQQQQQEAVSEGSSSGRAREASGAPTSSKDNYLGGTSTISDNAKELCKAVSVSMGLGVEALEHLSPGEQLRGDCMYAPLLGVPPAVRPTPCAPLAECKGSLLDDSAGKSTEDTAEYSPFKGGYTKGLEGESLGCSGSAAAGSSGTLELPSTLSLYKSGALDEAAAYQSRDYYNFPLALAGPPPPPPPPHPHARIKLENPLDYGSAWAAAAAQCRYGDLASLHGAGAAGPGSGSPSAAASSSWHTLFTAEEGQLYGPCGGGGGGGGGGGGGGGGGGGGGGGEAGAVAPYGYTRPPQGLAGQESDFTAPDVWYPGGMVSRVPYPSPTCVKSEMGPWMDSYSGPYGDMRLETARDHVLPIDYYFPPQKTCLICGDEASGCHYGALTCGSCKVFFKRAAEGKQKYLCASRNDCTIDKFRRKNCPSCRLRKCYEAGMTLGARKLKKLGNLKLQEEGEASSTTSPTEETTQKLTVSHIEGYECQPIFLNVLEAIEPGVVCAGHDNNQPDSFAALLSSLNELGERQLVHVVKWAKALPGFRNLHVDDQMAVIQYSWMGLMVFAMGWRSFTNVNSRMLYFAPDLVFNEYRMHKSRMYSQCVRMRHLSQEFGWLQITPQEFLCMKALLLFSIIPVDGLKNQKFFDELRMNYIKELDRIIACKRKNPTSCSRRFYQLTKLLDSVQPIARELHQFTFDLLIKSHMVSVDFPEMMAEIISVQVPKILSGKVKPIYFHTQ

AR [1] = experiment: Mammalian two-hybrid assay with CAT reporter in DU145 cells; assay type: cell-based, human
Text: The mammalian two-hybrid system employed was essentially the protocol of Clontech (California), with the following modifications. […] The hinge and LBD of wtAR were then inserted into pGAL0. Similarly, the VP16 activation domain was fused to pCMX under the control of a CMV promoter, and designated pCMX-VP16 (provided by Dr. R. M. Evan).

ARA55 mRNA = experiment: Northern blot of ARA55 mRNA in PC3 cells; assay type: cell-based, human; conditions: TGFβ 5 ng/ml
Experimental: The total RNA (25 μg) was fractionated on a 1% formaldehyde-MOPS agarose gel, transferred onto a Hybond-N nylon membrane (Amersham) and prehybridized. A probe corresponding to the 900 bp C-terminus of ARA55 or an ARA54-specific sequence was ^32P-labeled in vitro using Random Primed DNA Labeling Kit (Boehringer-Mannheim) according to the manufacture's protocol and hybridized overnight. After washing, the blot was exposed and quantified by Molecular Dynamics PhosphorImager. β-actin was used to monitor the amount of total RNA in each lane.

AR [2] = target: T2, AR (Homo sapiens, UniProt P10275); experiment: AR transcriptional activity (MMTV-CAT) in PC3 cells; conditions: TGFβ treatment
T2 sequence (P10275 1-920): T1 sequence (P10275 1-920)

[3] = target: T3, progesterone receptor (PR) (Homo sapiens, UniProt P06401); experiment: Steroid receptor transactivation, MMTV-CAT reporter in DU145 cells; assay type: cell-based; conditions: DU145 cells, cognate ligand
T3 construct: expressed in transfected cells; host or cells: DU145
T3 sequence (P06401 1-933): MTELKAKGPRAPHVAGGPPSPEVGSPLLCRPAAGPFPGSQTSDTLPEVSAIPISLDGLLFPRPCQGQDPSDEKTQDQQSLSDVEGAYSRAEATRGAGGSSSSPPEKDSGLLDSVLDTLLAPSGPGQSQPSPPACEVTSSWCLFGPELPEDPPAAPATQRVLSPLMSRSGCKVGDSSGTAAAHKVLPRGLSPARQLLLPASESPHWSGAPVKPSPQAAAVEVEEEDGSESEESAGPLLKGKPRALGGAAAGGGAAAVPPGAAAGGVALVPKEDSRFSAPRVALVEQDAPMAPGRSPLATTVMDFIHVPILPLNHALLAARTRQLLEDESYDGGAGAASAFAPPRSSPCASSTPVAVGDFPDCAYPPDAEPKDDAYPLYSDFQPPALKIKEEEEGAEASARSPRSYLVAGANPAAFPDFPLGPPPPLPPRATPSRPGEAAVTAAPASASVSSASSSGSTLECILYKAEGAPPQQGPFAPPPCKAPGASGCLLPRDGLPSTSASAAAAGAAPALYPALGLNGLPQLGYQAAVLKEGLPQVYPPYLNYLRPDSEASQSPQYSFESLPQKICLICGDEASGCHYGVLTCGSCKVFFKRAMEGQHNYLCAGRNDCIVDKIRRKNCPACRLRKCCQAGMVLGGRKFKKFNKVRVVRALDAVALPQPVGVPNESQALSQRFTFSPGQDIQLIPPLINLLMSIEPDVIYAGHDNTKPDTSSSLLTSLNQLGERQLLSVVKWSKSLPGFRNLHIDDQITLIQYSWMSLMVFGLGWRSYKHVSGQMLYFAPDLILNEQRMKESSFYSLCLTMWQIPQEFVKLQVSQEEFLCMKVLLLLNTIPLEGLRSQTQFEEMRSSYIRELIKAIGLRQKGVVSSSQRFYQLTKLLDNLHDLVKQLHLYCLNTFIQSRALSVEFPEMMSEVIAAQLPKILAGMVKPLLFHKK

[4] = target: T4, glucocorticoid receptor (GR) (Homo sapiens, UniProt P04150); experiment: as above; assay type: cell-based; conditions: DU145 cells
T4 construct: expressed in transfected cells; host or cells: DU145
T4 sequence (P04150 1-777): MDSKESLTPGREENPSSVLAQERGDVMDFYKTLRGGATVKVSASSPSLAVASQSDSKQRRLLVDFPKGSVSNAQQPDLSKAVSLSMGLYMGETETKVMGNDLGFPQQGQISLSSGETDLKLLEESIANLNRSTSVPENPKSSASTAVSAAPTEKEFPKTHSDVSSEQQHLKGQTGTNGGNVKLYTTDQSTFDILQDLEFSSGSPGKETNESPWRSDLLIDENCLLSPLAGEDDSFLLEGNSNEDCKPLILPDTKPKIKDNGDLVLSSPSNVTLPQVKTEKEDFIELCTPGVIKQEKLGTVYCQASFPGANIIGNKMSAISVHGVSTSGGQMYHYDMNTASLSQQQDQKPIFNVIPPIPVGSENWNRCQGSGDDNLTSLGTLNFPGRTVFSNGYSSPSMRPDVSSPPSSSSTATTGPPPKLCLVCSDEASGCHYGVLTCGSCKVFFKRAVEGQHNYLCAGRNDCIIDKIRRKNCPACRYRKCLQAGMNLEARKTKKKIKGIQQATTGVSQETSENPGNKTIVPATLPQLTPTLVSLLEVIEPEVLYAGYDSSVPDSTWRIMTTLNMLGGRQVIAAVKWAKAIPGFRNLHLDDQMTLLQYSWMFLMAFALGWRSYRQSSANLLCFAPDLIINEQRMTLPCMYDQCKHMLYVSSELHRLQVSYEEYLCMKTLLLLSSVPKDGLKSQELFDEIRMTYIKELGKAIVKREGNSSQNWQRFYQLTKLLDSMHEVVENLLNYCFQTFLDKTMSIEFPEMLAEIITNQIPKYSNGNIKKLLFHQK

estrogen receptor (ER) = target: T5, estrogen receptor (ER) (Homo sapiens, UniProt P03372); experiment: Steroid receptor transactivation, ERE-CAT reporter in DU145 cells; assay type: cell-based; conditions: DU145 cells
T5 construct: expressed in transfected cells; host or cells: DU145
T5 sequence (P03372 1-595): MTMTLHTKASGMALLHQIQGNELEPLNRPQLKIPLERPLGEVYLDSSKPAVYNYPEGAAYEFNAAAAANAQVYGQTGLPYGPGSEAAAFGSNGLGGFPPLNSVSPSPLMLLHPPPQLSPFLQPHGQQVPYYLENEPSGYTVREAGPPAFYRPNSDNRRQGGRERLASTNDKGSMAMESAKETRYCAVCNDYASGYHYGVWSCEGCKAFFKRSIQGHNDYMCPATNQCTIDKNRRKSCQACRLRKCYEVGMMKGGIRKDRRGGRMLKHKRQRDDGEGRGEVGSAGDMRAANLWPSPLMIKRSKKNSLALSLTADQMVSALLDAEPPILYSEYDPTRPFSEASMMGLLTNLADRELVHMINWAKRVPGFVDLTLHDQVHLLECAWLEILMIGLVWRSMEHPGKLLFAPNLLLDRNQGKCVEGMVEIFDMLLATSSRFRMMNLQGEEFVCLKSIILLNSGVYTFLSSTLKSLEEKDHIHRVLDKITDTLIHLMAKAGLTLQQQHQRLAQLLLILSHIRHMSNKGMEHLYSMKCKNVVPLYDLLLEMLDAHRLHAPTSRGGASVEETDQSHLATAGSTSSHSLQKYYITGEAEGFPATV

## C[C@]12CC[C@@H]3c4ccc(O)cc4CC[C@H]3[C@@H]1CC[C@@H]2O [E2, 17 β estradiol]
mARt877s; absence of ARA54, E2 10^-9-10^-7 M, HF 10^-7-10^-5 M
  response of Art877a transactivation to ligand: responded
mARt877s; compared to wtAR
  response of LNCaP mAR to ligand compared to wtAR: responded much better

## ARA70: the first identified AR coactivator, used as positive control [reference compound]
wtAR
  AR transcriptional activity induction with cotransfected coactivator: 36 fold

## Rb: retinoblastoma protein, SEQ ID NO:8, expressed by transfection as AR coactivator
AR [1]; DU145, Rb with near full length AR (aa 36-918)
  induced CAT activity in mammalian two-hybrid assay (interaction with AR): 3 fold
wtAR
  AR transcriptional activity induction with cotransfected coactivator: 21 fold

## TGFβ
ARA55 mRNA
  induction of ARA55 mRNA: 2 fold
AR [2]
  increase of AR transcriptional activity: 70%

B1: ARA54: 54 kDa androgen receptor coactivator, 474 aa, SEQ ID NO:2, expressed by transfection (protein)
chain: MSSEDREAQEDELLALASIYDGDEFRKAESVQGGETRIYLDLPQNFKIFVSGNSNECLQNSGFEYTICFLPPLVLNFELPPDYPSSSPPSFTLSGKWLSPTQLSALCKHLDNLWEEHRGSVVLFAWMQFLKEETLAYLNIVSPFELKIGSQKKVQRRTAQASPNTELDFGGAAGSDVDQEEIVDERAVQDVESLSNLIQEILDFDQAQQIKCFNSKLFLCSICFCEKLGSECMYFLECRHVYCKACLKDYFEIQIRDGQVQCLNCPEPKCPSVATPGQVKELVEAELFARYDRLLLQSSLDLMADVVYCPRPCCQLPVMQEPGCTMGICSSCNFAFCTLCRLTYHGVSPCKVTAEKLMDLRNEYLQADEANKRLLDQRYGKRVIQKALEEMESKEWLEKNSKSCPCCGTPIEKLDGCNKMTCTGCMQYFCWICMGSLSRANPYKHFNDPGSPCFNRLFYAVDVDDDIWEDEVED
modifications: Homo sapien
[3]
  induction of PR transcriptional activity by ARA54: 3–5 fold
[4]
  effect of ARA54 on GR transcriptional activity: less than 2 fold
Estrogen receptor (ER)
  effect of ARA54 on ER transcriptional activity: less than 2 fold
AR [1]; DU145, 10^-8 M DHT
  CAT activity on coexpression of AR with ARA54: significantly induced
wtAR; DHT 10^-10 to 10^-8 M
  enhancement of wtAR transactivation by coexpressed ARA54: 3–5 fold
wtAR; DU145 cells, cognate ligand
  induction of AR transcriptional activity by ARA54: up to 6 fold
